Numbering of substitutions follows the chain as printed.

In this assay the target is T1, 4-1BB(24-180)-His重组蛋白 (4-1BB胞外段24-180位氨基酸, C端6个His) (UniProt Q07011 24-180).
T1 construct: range 24-180; Human is implied by the human therapeutic context; The monomer was used for immunisation and the ELISA screen; also called 4-1BB-His蛋白; 4-1BB蛋白
The assay can be described thus: SPR, antibody captured on Protein A chip, 4-1BB protein 6.25-400 nM as analyte. In general terms: Surface plasmon resonance follows binding to a sensor surface in real time, without labels.

B1: 11B6嵌合抗体 (antibody, human IgG4 S228P, kappa, V domains shown)
VH: QVQLQQPGAELVRPGASVKLSCKASGYTFTSYWINWVKQRPGQGLEWIGNIYPSDSYTNYNQKFKDKATLTVDKSSSTAYMQLSSPTSEDSAVYYCTRESQTGTGYYAMDYWGQGTSVTVSS
VL: DIQMTQTTSSLSASLGDRVTISCRASQDISNYLNWYQQKPDGTVKLLIYYTSRLHSGVPSRFSGSGSGTDYSLTISNLEQEDIATYFCQQGNTLPWTFGGGTKLEIKR
notes: Mouse 11B6 variable regions on a human IgG4 constant region and a human kappa constant region; also called 11B6 chimeric antibody
For B1, the Kd (commonly the free concentration of one partner at which half of the binding sites on the other are occupied at equilibrium, for simple one-to-one binding) was 3.75 nM.

B2: 人源化11B6-hu-a抗体 (antibody, human IgG4 S228P, kappa, V domains shown)
VH: QVQLVQSGAEVKKPGSSVKVSCKASGYTFTSYWINWVRQAPGQGLEWIGNIYPSDSYTNYNQKFQGRVTITADESTSTAYMELSSLRSEDTAVYYCTRESQTGTGYYAMDYWGQGTLVTVSS
VL: DIQMTQSPSSLSASVGDRVTITCQASQDISNYLNWYQQKPGKAPKLLIYYTSRLHSGVPSRFSGSGSGTDFTFTISSLQPEDIATYYCQQGNTLPWTFGGGTKLEIKR
B2 registered a Kd of 5.84 nM.

B3: 人源化11B6-hu-b抗体 (antibody, human IgG4 S228P, kappa, V domains shown)
VH: B2 VH with S16A, I70M, A72R, E74T, A79V
VL: B2 VL with Q24R, F73L, I83F, G100Q, L104V
For B3, the Kd amounted to 9 nM.

The record behind these values is CN111484554A (YINGWEIFUSAI BIOTECHNOLOGY CO LTD, dated 2020).
